How the values were obtained:
[1] = biological target: cf-TMD0-His (M1 – P142), cell-free expressed (human) (UniProt Q9NP78); test: SEC-MALS; 400 µg cf-TMD0-His on TSK-GEL G3000SWXL, 4 °C; 25 mM Na acetate, 300 mM NaCl, 0.7% c6-DHPC, pH 5.0; three-detector method (UV, refractive index, light scattering)
[2] = biological target: cf-TMD0-His S28C, MTSL labeled (human) (UniProt Q9NP78); test: PELDOR (DEER) spectroscopy; MTSL labeled single cysteine cf-TMD0-His in c6-DHPC with 15–20% deuterated glycerol, frozen; Q-band (33.4 GHz), 50 K; modulation depth and distance distribution by Tikhonov regularization
TmrAB = biological target: T1, TmrAB (Thermus thermophilus, UniProt Q72J04+Q72J05); conditions: 3 mM ATP, 3 uM RRYC(fluorescein)KSTEL, 3 mM MgCl2, pH 7.5, 37 °C, 15 min; with cf-TMD0-His co-reconstituted
T1 construct: gene TT_C0976

coreTAPLmV = biological target: T2, coreTAPLmV (Homo sapiens, UniProt Q9NP78); conditions: 3 mM ATP, 3 uM RRYC(fluorescein)KSTEL, 3 mM MgCl2, pH 7.5, 37 °C, 15 min; with cf-TMD0-His co-reconstituted
T2 construct: gene ABCB9

[3] = biological target: cf-TMD0-His S138C, MTSL labeled (human) (UniProt Q9NP78); test: PELDOR (DEER) spectroscopy; MTSL labeled single cysteine cf-TMD0-His in c6-DHPC with 15–20% deuterated glycerol, frozen; Q-band (33.4 GHz), 50 K; modulation depth and distance distribution by Tikhonov regularization

cf-TMD0-His (M1 – P142), cell-free expressed (from UniProt Q9NP78 1-142) (domain or fragment)
stoichiometry N [1]: 2

cf-TMD0-His S28C, MTSL labeled (from UniProt Q9NP78 1-142) (domain or fragment)
stoichiometry N [2]: 2

Nc1ncnc2c1ncn2[C@@H]1O[C@H](COP(=O)(O)OP(=O)(O)OP(=O)(O)O)[C@@H](O)[C@H]1O [ATP]
ATP-dependent peptide transport in proteoliposomes, fluorescence (TmrAB): Functional reconstitution of coreTAPLmV as well as TmrAB into liposomes was demonstrated by ATP-dependent peptide transport
ATP-dependent peptide transport in proteoliposomes, fluorescence (coreTAPLmV): Functional reconstitution of coreTAPLmV as well as TmrAB into liposomes was demonstrated by ATP-dependent peptide transport

cf-TMD0-His S138C, MTSL labeled (from UniProt Q9NP78 1-142) (domain or fragment)
stoichiometry N [3]: 2
